Changes are numbered by the printed parent chain.
T1: human CD84 on cells (human) (UniProt Q9UIB8)
T1 sequence (looked up): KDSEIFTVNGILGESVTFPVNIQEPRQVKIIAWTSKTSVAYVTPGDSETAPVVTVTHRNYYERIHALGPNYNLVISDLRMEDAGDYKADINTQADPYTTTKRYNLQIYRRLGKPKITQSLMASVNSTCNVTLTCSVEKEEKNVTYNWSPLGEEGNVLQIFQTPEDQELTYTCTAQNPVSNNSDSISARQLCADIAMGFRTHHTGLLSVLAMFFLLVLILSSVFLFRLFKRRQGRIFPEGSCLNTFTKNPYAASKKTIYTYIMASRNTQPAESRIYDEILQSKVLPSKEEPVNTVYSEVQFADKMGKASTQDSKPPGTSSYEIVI

T2: Human CD84 produced by mammalian cells (human) (UniProt Q9UIB8)
T2 sequence (looked up): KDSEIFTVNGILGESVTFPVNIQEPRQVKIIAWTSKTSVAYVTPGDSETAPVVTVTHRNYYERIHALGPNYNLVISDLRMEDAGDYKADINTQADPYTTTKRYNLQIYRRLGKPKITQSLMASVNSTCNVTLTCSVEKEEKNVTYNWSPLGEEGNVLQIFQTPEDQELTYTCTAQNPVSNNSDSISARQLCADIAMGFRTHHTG

B1: 152-1D5 (antibody, mouse IgG1, V domains shown)
VH: QVQLQQPGAEVVQPGTSVKLSCKASGYNFTNYWINWVKLRPGQGLEWIGDIYPVSGTTNYNEKFKRKATLTVDTSSSTGNMQLSSLASEDSALYYCASGTGRFAYWGQGTLVTVSA
VL: DIVLTQSPASLAVSLGQRATISCRASQSVSTSSYSYMHWYQQKPGQPPKLLIKFASNLESGVPARFSGSGSGTDFTLNIHPVEEEDTATYYCQHSWEIPYTFGGGTKLEIK
B2: GYCD84.1-226 (antibody, mouse IgG1, V domains shown)
VH: QVQLQQPGAELVKPGTSVKLSCKASGYNFTRYWINWVKLRPGQGLEWIGDIYPGSGSTNYNEKFKSKATLTVDTSSSTAYMQLSRLASEDSALYYCARDTTIAYWGQGTLVTVSA
VL: B1 VL with A9T, S30T, S33R
B3: GYCD84.1-97 (antibody, mouse IgG2a, V domains shown)
VH: QVQLQQPGAELVKPGTSVKLSCKASGYNFTSYWINWVKLRPGQGLEWIGDIYLGSGSTNYNEKFKSKATLTVDTSSSSAYMQLSSLVSEDSALYYCATSGGYLGYWGQGTTLTVSS
VL: B1 VL
B4: GYCD84.5.171 (antibody, mouse IgG1, V domains shown)
VH: EVQLVESGGGLVQPKGSLKLACAASGFTFNIYAMNWVRQAPGKGLEWVARIRSKSNNYARFYADSVKDRFTISRDDSQSMLYLQMNNLKTEDTAMYYCVRPLRSYFSMDYWGQGTSVTVSS
VL: SIVMTQSPKSMSMSVGERVTLSCKASENVDTYVSWYQQKPEQSPKLLIYGASNRYTGVPDRFTGSGSATDFTLTISSVKAEDLADYHCGQTYSYPWTFGGGTKLEIK
B5: GYCD84.2.27 (antibody, mouse IgG1, V domains shown)
VH: QVTLKESGPGILQPSQTLSLTCSFSGFSLTTSGMGVGWIRQPSGKGLEWLAHIWWDDVKRYNPALKSRLTISKDTSSSQVFLKIASVDTADTASYYCARMSTSYYFDYWGQGTTLTVSS
VL: DIVMTQSHKFMSTSLGDRVSISCKASQSLFTSVAWYQQKPGQSPKLLIYSASYRYTGVPDRFTGSGSGTDFTFTISSVQAEDLAVYYCQQHYSSPFTFGSGTKLGIK
B6: R3-H3 (scFv)
scFv: EVQLVESGGGLVQPGGSLRLSCAASGFTFSDNAMSWVRQAPGKGLEWVSAISGTGRTTYYADSVKGRFTISRDNSKNTLYLQMNSLRAEDTAVYYCAKWDCSDGRCYWAYWGQGTLVTVSSGGGGSGGGGSGGGGSGGGGASEIVLTQSPLSLPVTLGQPASISCRSSQSLVYSDGDTYLNWFQQRPGQSPRRLIYKVSNRDSGVPDRFSGSGSGTDFTLKISRVEAEDVGVYYCMQGTHWPPNTFGQGTRLEIK
B7: GYCD84.1-108 (antibody, mouse IgG2a, V domains shown)
VH: QVQLQQSGAELVRPGTSVKMSCKAAGYTFTNYWIGWVRQRPGHGLEWIGDIYPGGGYTNYNENFKGKATLTADTSSSTAYMQLSSLTSEDSAIYYCARSTTYYSSYWCFDVWGPGTTVTVSS
VL: DIVMTQSPSSLSVSAGEKVTMSCKSSQSLLNSGNQANYLAWYQQKPGQPPKLLINGASTRESGVPDRFTGSGSGTDFTLTISSVQAEDLAVYYCQNDHSYPFTFGSGTKLEIK
B8: GYCD84.3.298 (antibody, mouse IgG1, V domains shown)
VH: QVTLKESGPGILQPSQTLSLTCSFSGFSLSTSGMGVGWIRQPSGKGLEWLAHIWWDDVKRYNPALRSRLTISKDTSSSQVFLNIASVDTADTATYYCTRIAVTYFFDFWGQGTTLTVSS
VL: DIQMTQSPASLSASVGETVTITCRASENIFSSFAWYQQKRGRSPQLLVYNARTLAEGVPSRFSGSGSGTQFSLKINSLQPEDFGTYFCQHHYASPFTFGSGTELGVK
B9: R3-G7 (scFv)
scFv: QVQLVESGGGVVQPGRSLRLSCTASGFTFSSYPMHWVRQAPGKGLEWVAAISYHGRNKFYADSVKGRFTISRDDLRSTLYLQMNNLKADDTAVYSCARDRDATPGGTGVGNHGMAVWGQGTTVTVSSGGGGSGGGGSGGGGSGGGGASEIVLTQSPLSLPVTPGEPASISCKSSQSLLHSSGYNYLDWYLQKPGQSPQLLIHMGSNRASGVPARFSGSGSGTDFTLRISRVEAEDVGVYYCMQGLQTPPTFGGGTKLEIK
B10: GYCD84.3.89 (antibody, mouse IgG1, V domains shown)
VH: EVKLLESGGGLVQPGGSLKLSCAASGFGFSRSWMSWVRQAPGKGLEWIGEINPDSSTINYTPSLKDKFIISRDNAKNTLFLQMSKVRSEDTALYYCATFYDGYSIYWYFDVWGAGTTVTVSS
VL: DVLMTQTPLSLPVSLGDQASISCRSSQSIVHSNGDTYLEWYLQKPGQSPKLLIYKVSNRFSGVPDRFSGSGSGTDFTLKISRVEAEDLGVYYCFQGSHVPRTFGGGTKLEIK
B11: GYCD84.1-207 (antibody, mouse IgG1, V domains shown)
VH: EVKLLESGGGLVQPGGSLKLSCAASGFDFSRYWMSWVRQAPGKGLEWIGEINPDSSTINYTPSLKDKFIISRDNAKNTLYLQMSKVRSEDTALYYCARPGPTVVATYWYFDVWGAGTTVTVSS
VL: B10 VL with D35N, N58S, G71A
B12: GYCD84.2.32 (antibody, mouse IgG1, V domains shown)
VH: EVQLQQSGPELEKPGASVKISCKASGYSFTGYNMNWVKQSNGKSLEWIGNIDPYYGGTNYNQKFKGKATLTVDKSSSTAYMQLKSLTSEDSAVYYCARGLLSGSFPYWGQGTLVTVSA
VL: DIQMTQSPASLSASVGETVTITCRASENIYSYLAWYQQKQGKSPQLLVYNAKTLAEGVPSRFSGSGSGTQFSLKINSLHPEDFGSYFCQHHYGSPLTFGAGTKLEVK
B13: GYCD84.1-7 (antibody, mouse IgG1, V domains shown)
VH: B5 VH with T30S, S94T, S101R
VL: B12 VL with Y30F, Y32S, K39R, H79Q, F87Y, G93A, S94T, L96F, A100S, V106I

How the values were obtained:
[1] = molecular target: T1, human CD84 on cells (human); assay: flow cytometry, hybridoma supernatant at equal antibody concentration, monocytes
[2] = molecular target: T1, human CD84 on cells (human); assay: flow cytometry, hybridoma supernatant at equal antibody concentration, Raji cells
[3] = molecular target: T1, human CD84 on cells (human); assay: flow cytometry, hybridoma supernatant at equal antibody concentration, Ramos cells
[4] = molecular target: T1, human CD84 on cells (human); assay: flow cytometry, hybridoma supernatant at equal antibody concentration, lymphocytes
[5] = molecular target: T1, human CD84 on cells (human); assay: flow cytometry, hybridoma supernatant at equal antibody concentration, 300.19-CD84+ cells
[6] = molecular target: T2, Human CD84 produced by mammalian cells (human); assay: monoclonal phage ELISA, plate coated with CD84 antigen, anti-phage HRP antibody

Row | Binder | Monocyte binding [1] | Raji binding [2] | Ramos binding [3] | Lymphocyte binding [4] | 300.19-CD84 binding [5] | ELISA signal on antigen (Ag), read at 450 nm (absorbance at 450 nm) [6]
1 | B1 | 72% | 97.6% | 73.4% | 24.4% | 92.5% | –
2 | B2 | 76.1% | 99.9% | 80.2% | 28.7% | 98.1% | –
3 | B3 | – | – | – | – | 97.7% | –
4 | B4 | 64.8% | 73.9% | 35.1% | 26.8% | 93.2% | –
5 | B5 | 77.5% | 97.5% | 66.3% | 25.4% | 96.3% | –
6 | B6 | – | – | – | – | – | 0.696
7 | B7 | 41.3% | 30.3% | 31.2% | 13.6% | 93.9% | –
8 | B8 | 53.9% | 45.9% | 28.3% | 16.6% | 93.5% | –
9 | B9 | – | – | – | – | – | 2.4
10 | B10 | 72.7% | 99.1% | 91.3% | 24.9% | 83% | –
11 | B11 | – | – | – | – | 94.2% | –
12 | B12 | 78.2% | 99.5% | 78.6% | 28.7% | 99% | –
13 | B13 | 64.4% | 91.4% | 59% | 19% | 92.6% | –

From patent EP4209511A1
